Test results taken from patent publication US6353097.

Legend:
[1] = target: C-terminal (201-243) cytoplasmic domain of the rat FcεRIβ, Gal 4 DNA binding domain fusion protein (pAS2-1-βC) (rat); test: yeast two-hybrid, liquid β-galactosidase assay, strain Y187
[2] = target: rat FcεRI (α, β and γ subunits) on CHO-B12 cells (UniProt P12371)

| LacZ reporter (β-galactosidase) activity, fold over the negative control pACT-27-66-OOF [1] [fold] | strength of the interaction by β-galactosidase activity, relative to p53 and SV40 [1] [per cent] | Substance | antigen-induced phosphorylation of receptor tyrosines [2] |
| --- | --- | --- | --- |
| 3 | 1 | full length Lyn A, Gal 4-activation domain-kinase fusion protein (from UniProt P04386 768-881) (enzyme) | – |
| 3 | 1 | unique domain of Lyn B (amino acids 1-45), Gal 4-activation domain fusion protein (from UniProt Q07014 1-66) | – |

The remaining lines, values behind:

| Substance | LacZ reporter (β-galactosidase) activity, fold over the negative control pACT-27-66-OOF [1] [fold] | strength of the interaction by β-galactosidase activity, relative to p53 and SV40 [1] [per cent] | antigen-induced phosphorylation of receptor tyrosines [2] |
| --- | --- | --- | --- |
| unique domain of Lyn A (amino acids 1-66), Gal 4-activation domain fusion protein (from UniProt Q07014 1-66) | 3 | 1 | – |
| full length Lyn B, Gal 4-activation domain-kinase fusion protein (from UniProt P04386 768-881) (enzyme) | 3 | 1 | – |
| full length, catalytically inactive Lyn B kinase (Lys279 to Arg), rat, expressed in CHO-B12 cells | – | – | 20-75% less antigen-induced phosphorylation of receptor tyrosines than cells transfected with the vector alone |
